Test results reported in patent US20240294651A1 (KYMAB, published 2024).

Legend:
[1] = biological target: T1, human CXCR4 (cell-expressed) (human, UniProt P61073 1-352); assay: cell-based or functional assay
cynomolgus CXCR4 [2] = biological target: T2, cynomolgus CXCR4 (cynomolgus monkey, UniProt Q28474 1-352); assay: flow cytometry on CHO-S cells expressing cynomolgus CXCR4, anti-human Alexa Fluor 647 secondary antibody, GeoMean (647 nm)
T2 construct: also called cyno CXCR4; cynomolgus monkey CXCR4
Method: (§1) Cynomolgus monkey CXCR4 expressing CHO-S cells were plated at 100 uL/well of cells at 1 million of cells/mL (0.1 million of cells/well) into a 96 well V-bottom plate (Greiner). Plates were centrifuged at 300×g for 3 min at 4° C. and supernatant discarded. […] Primary antibody dilutions were added to cells (50 μL/well) and cell pellets resuspended by pipetting. Plates was incubated for 1 h at 4° C. 100 μL/well of PBS, was added and plates centrifuged at 300×g for 3 min at 4° C. and supernatant discarded. This step was repeated twice. […] Cells were resuspended by pipetting. Plates were incubated for 1 h at 4° C. 100 μL/well PBS, was added and plates centrifuged at 300×g for 3 min at 4° C. and supernatant discarded. This step was repeated twice. Finally, cells were resuspended in 100 μL/well of PBS and analysed on CytoFLEX (Beckman Coulter).
(§2) Binding of antibodies to cynomolgus CXCR4 expressed on CHO-S cells was analysed by gating the main cell population using forward and side scatter (Flow Jo, Flow Jo LLC) to allow for doublet discrimination. […] EC₅₀ values were calculated by transforming the data and fitting a 4-parameter logistic regression curve to each antibody titration.

[3] = biological target: T1, human CXCR4 (cell-expressed); assay: cell-based or functional assay; remark: listed apart in the source
human CXCR7 [4] = biological target: T3, human CXCR7 (human, UniProt P25106 1-362); assay: flow cytometry on CHO-S cells expressing human CXCR7, anti-mouse Alexa Fluor 647 secondary antibody, GeoMean (647 nm)
T3 construct: Expressed on CHO-S cells

[5] = biological target: T4, terbium-labelled SNAP-CXCR4 on HEK-293 cells (Cisbio C1TT1CXCR4) (human, UniProt P61072 1-352 (Pan troglodytes entry), terbium label on the SNAP tag); assay: TR-FRET (Tag-lite) competition with AlexaFluor 647-CXCL12 on terbium-labelled SNAP-CXCR4 HEK-293 cells
T4 construct: Bought assay-ready cells; also called CXCR4 expressing cells; not shown: SNAP tag

[6] = biological target: T1, human CXCR4 (cell-expressed); assay: cell-based or functional assay; remark: listed apart in the source
[7] = biological target: T1, human CXCR4 (cell-expressed); assay: cell-based or functional assay; remark: listed apart in the source
[8] = biological target: T1, human CXCR4 (cell-expressed); assay: cell-based or functional assay; remark: listed apart in the source
cynomolgus CXCR4 [9] = biological target: T2, cynomolgus CXCR4; assay: cell-based or functional assay
CXCR4 StaR nanodiscs [10] = biological target: T5, CXCR4 StaR nanodiscs; assay: SPR (Biacore T200), IgG4-PE antibody captured by anti-IgG on CM5, CXCR4 StaR nanodiscs at 250 nM as analyte, 25 C, 1:1 model; N = 1
T5 construct: Purified receptor in lipid-protein nanodiscs; also called StaR CXCR4; thermostabilised CXCR4
Method: (§3) Anti-IgG antibodies were immobilised on chip CM5 (GE Healthcare) by amine coupling. […] A channel with no anti-CXCR4 antibodies captured was used as a reference. […] The blank-subtracted sensorgrams were fitted to the 1:1 interaction model using the Biacore T200 evaluation software. The assay was run at 25° C. using 0.01 M HEPES pH 7.4, 0.15 M NaCl as running buffer.

human CXCR7 [11] = biological target: T3, human CXCR7; assay: flow cytometry on CHO-S cells expressing human CXCR7, Alexa Fluor 647 secondary antibody, GeoMean (647 nm)
Method: CXCR7 expressing CHO-S cells were plated at 100 μL/well of cells at 1 million of cells/mL (0.1 million of cells/well) into a 96 well V-bottom plate (Greiner). Plates were centrifuged at 300×g for 3 min at 4° C. and supernatant discarded. […] Primary antibody dilutions were added to cells (100 μL/well) and cell pellets resuspended by pipetting. Plate was incubated for 1 h at 4° C. 100 μL/well of PBS, was added and plates centrifuged at 300×g for 3 min at 4° C. and supernatant discarded. This step was repeated twice. […] Cells were resuspended by pipetting. Plate was incubated for 1 h at 4° C. 100 μL/well of PBS, was added and plates centrifuged at 300×g for 3 min at 4° C. and supernatant discarded. This step was repeated twice. Finally, cells were resuspended in 100 μL/well of PBS and analysed on CytoFLEX (Beckman Coulter).
Binding of antibodies to CXCR7 expressed on CHO-S cells was analysed by gating the main cell population using forward and side scatter (Flow Jo, Flow Jo LLC) to allow for doublet discrimination.

[12] = biological target: T1, human CXCR4 (cell-expressed); assay: cell-based or functional assay; remark: listed apart in the source
[13] = biological target: T1, human CXCR4 (cell-expressed); assay: cell-based or functional assay; remark: listed apart in the source
cynomolgus CXCR4 [14] = biological target: T2, cynomolgus CXCR4; assay: flow cytometry on CHO-S cells expressing cynomolgus CXCR4
Method: as §1, §2

CXCR4 StaR nanodiscs [15] = biological target: T5, CXCR4 StaR nanodiscs; assay: SPR (Biacore T200), IgG4-PE antibody captured by anti-IgG on CM5, CXCR4 StaR nanodiscs at 250 nM as analyte, 25 C, 1:1 model; N = 2
Method: as §3

T2 sequence (Q28474 whole entry): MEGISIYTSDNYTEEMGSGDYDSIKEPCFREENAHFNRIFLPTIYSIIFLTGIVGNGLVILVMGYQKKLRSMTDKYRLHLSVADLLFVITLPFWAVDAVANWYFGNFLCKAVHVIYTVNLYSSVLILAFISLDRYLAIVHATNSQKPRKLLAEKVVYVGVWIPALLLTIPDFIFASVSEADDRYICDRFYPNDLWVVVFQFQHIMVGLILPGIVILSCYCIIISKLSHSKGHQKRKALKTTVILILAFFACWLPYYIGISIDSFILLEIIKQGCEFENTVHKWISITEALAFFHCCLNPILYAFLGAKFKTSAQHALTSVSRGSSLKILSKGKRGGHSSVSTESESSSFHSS
T1 sequence (P61073 whole entry): as the sequence (Q28474 whole entry) above, with I24M, H35N, R38K, K146R, S176N counted along it
T4 sequence (P61072 whole entry): as the sequence (Q28474 whole entry) above, with I24M, H35N, R38K, K146R, S176N counted along it
T3 sequence (P25106 whole entry): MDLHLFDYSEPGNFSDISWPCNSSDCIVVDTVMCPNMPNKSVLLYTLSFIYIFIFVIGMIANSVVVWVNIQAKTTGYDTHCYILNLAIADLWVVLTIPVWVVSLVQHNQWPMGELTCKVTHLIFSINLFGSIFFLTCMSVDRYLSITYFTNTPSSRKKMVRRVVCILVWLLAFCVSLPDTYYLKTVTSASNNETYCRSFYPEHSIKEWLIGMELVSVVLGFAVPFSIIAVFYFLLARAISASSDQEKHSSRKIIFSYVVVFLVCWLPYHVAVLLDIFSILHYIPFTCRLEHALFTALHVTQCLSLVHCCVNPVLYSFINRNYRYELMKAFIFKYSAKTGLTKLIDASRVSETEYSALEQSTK

| Binder | % Max Inhibition, cAMP HTRF assay, CXCR4 BacMam HEK-293 cells [1] | IC50, cAMP HTRF assay, CXCR4 BacMam HEK-293 cells, 5.5 nM CXCL12 [1] | % Max Inhibition, beta-arrestin reporter assay, Tango CXCR4-bla U2OS cells [3] | IC50, beta-arrestin reporter assay, Tango CXCR4-bla U2OS cells, 30 nM CXCL12 [3] | % Max Inhibition [5] | IC50 [5] | % of max migration at 120 nM Ab, primary naïve T-cell trans-well migration [6] | IC50 n = 1, Jurkat chemotaxis towards 30 nM CXCL12 (IncuCyte) [7] | IC50 n = 2, Jurkat chemotaxis towards 30 nM CXCL12 (IncuCyte) [7] | IC50 n = 3, Jurkat chemotaxis towards 30 nM CXCL12 (IncuCyte) [7] | Mean IC50, Jurkat chemotaxis towards 30 nM CXCL12 (IncuCyte) [7] | % effect (remaining % of CXCL12 response), DMR assay, human T-cells [8] | IC50, label-free DMR assay, isolated human T-cells, EC80 CXCL12 [8] | % Maximum Inhibition, cAMP HTRF assay, cyno CXCR4 BacMam HEK-293 cells (cynomolgus CXCR4 [9]) | IC50, cAMP HTRF assay, cyno CXCR4 BacMam HEK-293 cells (cynomolgus CXCR4 [9]) | Kd (CXCR4 StaR nanodiscs [10]) | koff (CXCR4 StaR nanodiscs [10]) | kon (CXCR4 StaR nanodiscs [10]) | binding result (human CXCR7 [11]) | IC50 of antibody in presence of 30 nM CXCL12, human T-cell transwell chemotaxis [12] | further results |
| --- | --- | --- | --- | --- | --- | --- | --- | --- | --- | --- | --- | --- | --- | --- | --- | --- | --- | --- | --- | --- | --- |
| CL-148729 (antibody, human IgG4 S228P, lambda, V domains shown, Tested in human IgG4-PE format) VH: AVQLVESGGGLVQPGGSLKLSCAASGFTFSGSTMHWVRQASGRGLEWVGRIRSKADSYATAYSASVKGRFTISRDDSKKMAYLQMNSLKTEDMAVYYCTRSGDYWGQGTLVTVSS VL: QSVLTQPPSVSAAPGQKVTISCSGSSSNIGKNYVAWYQQLPGTAPKLLIYDTNKRPSGIPDRFSGSKSGTSATLDITGLQTGDEADYYCGTWDISLSVGWLFGGGTKVTVLG | 114% | 6 nM | 99.6% | 0.11 nM | – | – | – | – | – | – | – | – | – | – | – | – | – | – | – | – | binding result (cynomolgus CXCR4 [2]): no binding (tested: log(M) about -6.9 (about 1.2e-7 M)) |
| Anti-CXCR7 mAb #11G8 (R&D Systems) (antibody, V domains shown) VH: EVKLVESGGDLVQPGGSLKLSCATSGFTFSDYYMFWVRQTPEKRLEWVAYITNGGDRSYYSDTVTGRFIISRDNAKNTLYLQMSRLKSEDTAMYYCARQGNWAAWFVYWGQGTLVTVSA VL: DVLMTQTPLSLPVSLGDQASISCRSSHYIVHSDGNTYLEWYLQKPGQSPKLLIYKVSNRFSGVPDRFSGSGSGTDFTLKISRVEAEDLGIYYCFQGSHVPLTFGAGTKLELKR | – | – | – | – | – | – | – | – | – | – | – | – | – | – | – | – | – | – | – | – | EC50 (read off the curve) (human CXCR7 [4]): ~10 nM |
| CL-82458 (antibody, human IgG4 S228P, kappa, V domains shown, Tested in human IgG4-PE format; also called CL-82458 (IgG4-PE format)) VH: EVQLVESGGDLVQPGGSLRLSCAASGFTFYSYAMNWVRQAPGKGLKWVSGISGSGDITYYADSVKGRFTISRDNSKNTLYLQMHSLRPEDTAIYYCAKGQLERRYYKYYGMDVWGQGTTVTVSS VL: DIQMTQSPSSLSASVGDRVTITCRANQGIRNDLGWYQQKPGKAPKRLIYGASSLKSGVPSRFSGSGSGTEFTLTISSLQPEDFATYYCLQQNSYPLTFGGGTKVEIKR | 88% | 40 nM | 102% | 0.31 nM | 99% | 0.79 nM | 17.6% | 2.18 nM | 3.43 nM | 1.66 nM | 2.42 nM | 2% | 12.1 nM | 78% | 2 nM | 7.5 nM | 0.00046 s⁻¹ | 61000 M⁻¹ s⁻¹ | no binding (tested: log(M) about -6.9 (about 1.2e-7 M)) | 0.26 not printed (nM assumed) | Max Signal (Total Overlap Object Area), internalisation on Ramos cells, live-cell imaging [13]: 20800 µm^2 per image; EC50 (cynomolgus CXCR4 [14]): 2.2 nM |
| CL-82658 (antibody, human IgG4 S228P, kappa, V domains shown, Tested in human IgG4-PE format; also called CL-82658 (IgG4-PE format)) VH: QVQLVESGGGVVQPGRSLRLSCAASGFSFSSYGMHWVRQAPGKGLEWVAVISYDGSNKYYADSVKGRFTISRDNSKNTLYLQMNSLRGEDTAVYYCSKGSLTPRRGYYYSYGMDVWGQGTTVTVSS VL: DIQMTQSPSSLSASVGDRVTITCRASQGIRNDLSWYQQKPGKAPKRLIYAASSLQSGVPSRFSGSGSGTEFTLTISSLQPEDFATYYCLQHNGYPFTFGPGTKVDIKR | 98% | 23 nM | 100% | 0.35 nM | 100% | 1.04 nM | -2.08% | 0.22 nM | 0.31 nM | 0.21 nM | 0.25 nM | -0.6% | 1.54 nM | 80% | 1 nM | 9.6 nM | 0.0005 s⁻¹ | 52000 M⁻¹ s⁻¹ | no binding (tested: log(M) about -6.9 (about 1.2e-7 M)) | 0.18 not printed (nM assumed) | IC50, primary naïve T-cell trans-well migration [6]: 0.99 nM; Max Signal (Total Overlap Object Area), internalisation on Ramos cells, live-cell imaging [13]: 18900 µm^2 per image; EC50 (cynomolgus CXCR4 [14]): 4.2 nM |
| CL-82558 (antibody, human IgG4 S228P, kappa, V domains shown, Tested in human IgG4-PE format; also called CL-82558 (IgG4-PE format)) VH: QVQLQESGPGLVKPSQTLSLTCTVSGGSISSGGYYWSWIRQVPGKGLEWIGYISYSGNTFYSPSLKSRVTISVDTSENKFSLRLTSVTAADTAVYFCARDRRIPMLRGVKGYYYGLDVWGQGTTVTVSS VL: DIVMTQSPLSLPVIPGEPASISCRSSQSLLHRNGYKYLDWYLQKPGQSPQLLIYLGSNRASGVPARFSGSGSGTDFTLKISRVEAEDVGVYYCMQALQTPWTFGQGTKVEIKR | 94% | 29 nM | 99.5% | 0.07 nM | 101% | 0.57 nM | 6.34% | 0.72 nM | 0.94 nM | 0.71 nM | 0.79 nM | 4.3% | 1.72 nM | 83% | 1.3 nM | 3.9 nM | 0.00047 s⁻¹ | 120000 M⁻¹ s⁻¹ | no binding (tested: log(M) about -6.9 (about 1.2e-7 M)) | 0.14 not printed (nM assumed) | Kd (CXCR4 StaR nanodiscs [15]): 1.7 nM; koff (CXCR4 StaR nanodiscs [15]): 0.00013 s⁻¹; kon (CXCR4 StaR nanodiscs [15]): 77000 M⁻¹ s⁻¹; Max Signal (Total Overlap Object Area), internalisation on Ramos cells, live-cell imaging [13]: 23900 µm^2 per image; EC50 (cynomolgus CXCR4 [14]): 1.1 nM |
| CL-82574 (antibody, human IgG4 S228P, kappa, Tested in human IgG4-PE format; also called CL-82574 (IgG4-PE format)) heavy: not shown light: DIQMTQSPSSLSASVGDRVTITCRASQGVRDDLGWYQQKPGKAPKRLIYAASSLQSGVPSRFSGSGSGTEFTLTISSLQPEDFATYYCLQHNSYPFTFGPGTKVDIKRTVAAPSVFIFPPSDEQLKSGTASVVCLLNNFYPREAKVQWKVDNALQSGNSQESVTEQDSKDSTYSLSSTLTLSKADYEKHKVYACEVTHQGLSSPVTKSFNRGEC | 96% | 21 nM | 99.5% | 0.14 nM | 98% | 0.63 nM | 5.44% | 0.32 nM | 0.62 nM | 0.63 nM | 0.52 nM | 0.68% | 2.09 nM | 90% | 1.2 nM | 8 nM | 0.00088 s⁻¹ | 110000 M⁻¹ s⁻¹ | no binding (tested: log(M) about -6.9 (about 1.2e-7 M)) | 0.21 not printed (nM assumed) | IC50, primary naïve T-cell trans-well migration [6]: 0.95 nM; Max Signal (Total Overlap Object Area), internalisation on Ramos cells, live-cell imaging [13]: 18100 µm^2 per image; EC50 (cynomolgus CXCR4 [14]): 3.5 nM |
